Reference: patent US20230255948

Target: GST-OPNR153A (E. coli produced mutant OPN with the arginine in the thrombin cleavage site mutated to alanine) (UniProt P10923)

For Thrombin, the “thrombin cleavage (time course, 10 nM thrombin, SDS-PAGE)” value was “resistant to thrombin cleavage”.
